# What was measured:
# [1] = Fluorescence titration of LAOBP-22C conjugates with arginine; format: binding; details: LAOBP-22C conjugate, ligand arginine
# Text: (§1) Because of this, we decided to design and develop a biosensor for arginine, using the lysine/arginine/ornithine binding protein from Salmonella (LAOBP) ([52]). We carried out cysteine scanning by introducing four individual cysteine mutations at positions near the hinge region. The selection of cysteine positions was guided by the crystal structures of the apo and bound forms of the protein ([53]) (Fig. S1). Each of the four mutants was conjugated to six different fluorophores, and the fluorescence change upon the addition of ligand was characterized for each of the 24 protein-ligand conjugates. […] We determined the dissociation constants for all three ligands (arginine, lysine, and ornithine) using the LAOBP-22C acrylodan conjugate (Fig. 1F) and the coumarin conjugate (Fig. S2). With a large change in fluorescence and a dissociation constant of 1.5 µM for both arginine and lysine, we chose to use the LAOBP-22C acrylodan conjugate for subsequent experiments.
# (§2) Fluorescence analysis of protein-fluorophore conjugates was carried out on a Jasco FP-8500 fluorometer. […] Fluorescence values were volume adjusted, and Kd values were determined by fitting the titration data using Kaleidagraph according to the following equation: […]
# (§3) where F is the observed fluorescence at a given ligand concentration [L], Fo is the fluorescence in the absence of ligand, and Fmax is the fluorescence at saturation.
# [2] = tested on: cultures of P. aeruginosa, S. aureus, E.coli, E. faecalis, and C. striatum; assay: Gel electrophoresis of biosensors after 24 h in bacterial cultures (stability); details: 24 hours in culture, LB, supernatants
# Method: To determine if the observed changes in fluorescence were not simply the result of degradation of the protein sensors over the course of E. coli growth, glucose, individual ligands (arabinose, ribose, glutamate, arginine, or ornithine) were added to 24-hour-old cultures containing each corresponding PBP. Immediately after the addition of the respective analyte, fluorescence was measured again (Fig. 3F).
# Figure S3: Gel electrophoresis analysis of the stability of the biosensors after incubation with different bacterial species in culture for 24 hours. Left gel: TnGBP, Right gel: LAOBP. A Bio-Rad gel imager was used to detect the fluorescently labeled biosensor in each sample. In each gel, the lanes are as follows: 1. MW standard, 2. Pure protein, 3. Pure protein in LB with no bacteria, 4 – 8: supernatants after 24 hours of cultures of P. aeruginosa, S. aureus-GBP, E.coli, E. faecalis, and C. striatum.
# [3] = Fluorescence titration of LAOBP-22C conjugates with ornithine; format: binding; details: LAOBP-22C conjugate, ligand ornithine
# Text: as §1, §2, §3
# [4] = Fluorescence change of LAOBP-22C fluorophore conjugates upon addition of ligand; format: binding; details: LAOBP-22C mutant conjugates, ligand not given
# Text: as §1
# Fluorescence analysis of protein-fluorophore conjugates was carried out on a Jasco FP-8500 fluorometer. UV-clear, four-sided cuvettes containing 200–300 nM labeled protein in working buffer were used. The following parameters were used for each of the fluorophores: Acrylodan (excitation: 359 nm, emission: 440–550 nm), Coumarin (excitation: 390 nm, emission: 430–520 nm), IANBD (excitation: 460 nm, emission: 500–600 nm), Alexa488 (excitation: 490 nm, emission: 500–560 nm), TMR (excitation: 555 nm, emission: 570–620 nm), and Texas Red (excitation: 595 nm, emission: 600–660 nm). Titrations were carried out by adding increasing amounts of ligand while monitoring changes in emission at the maximum wavelength. Fluorescence values were volume adjusted, and Kd values were determined by fitting the titration data using Kaleidagraph according to the following equation: […]
# [5] = Fluorescence titration of LAOBP-22C conjugates with lysine; format: binding; details: LAOBP-22C conjugate, ligand lysine
# Text: as §1, §2, §3
Molecule,Kd [1] [µM],stability of the biosensor in bacterial culture (gel electrophoresis) [2],Kd [3] [µM],% Change [4],Kd [5] [µM]
"LAOBP-22C Acrylodan (conjugate, UniProt P02911 23-260, looked up, variant A22C, Acrylodan label) Lysine/arginine/ornithine-bind …: ALPQTVRIGTDTTYAPFSSKDCKGEFIGFDIDLGNEMCKRMQVKCTWVASDFDALIPSLKAKKIDAIISSLSITDKRQQEIAFSDKLYAADSRLIAAKGSPIQPTLESLKGKHVGVLQGSTQEAYANDNWRTKGVDVVAYANQDLIYSDLTAGRLDAALQDEVAASEGFLKQPAGKEYAFAGPSVKDKKYFGDGTGVGLRKDDTELKAAFDKALTELRQDGTYDKMAKKYFDFNVYGD",1.5 ± 0.1,two bands are visible,38.9 ± 1.8,−50%,1.5 ± 0.1
"LAOBP-22C Texas Red (conjugate, UniProt P02911 23-260, looked up, variant A22C, Texas Red label) Lysine/arginine/ornithine-bind …: ALPQTVRIGTDTTYAPFSSKDCKGEFIGFDIDLGNEMCKRMQVKCTWVASDFDALIPSLKAKKIDAIISSLSITDKRQQEIAFSDKLYAADSRLIAAKGSPIQPTLESLKGKHVGVLQGSTQEAYANDNWRTKGVDVVAYANQDLIYSDLTAGRLDAALQDEVAASEGFLKQPAGKEYAFAGPSVKDKKYFGDGTGVGLRKDDTELKAAFDKALTELRQDGTYDKMAKKYFDFNVYGD",,,,−22%,
"LAOBP-22C IANBD (conjugate, UniProt P02911 23-260, looked up, variant A22C, IANBD label) Lysine/arginine/ornithine-bind …: ALPQTVRIGTDTTYAPFSSKDCKGEFIGFDIDLGNEMCKRMQVKCTWVASDFDALIPSLKAKKIDAIISSLSITDKRQQEIAFSDKLYAADSRLIAAKGSPIQPTLESLKGKHVGVLQGSTQEAYANDNWRTKGVDVVAYANQDLIYSDLTAGRLDAALQDEVAASEGFLKQPAGKEYAFAGPSVKDKKYFGDGTGVGLRKDDTELKAAFDKALTELRQDGTYDKMAKKYFDFNVYGD",,,,-8%,
"LAOBP-22C Alexa488 (conjugate, UniProt P02911 23-260, looked up, variant A22C, Alexa488 label) Lysine/arginine/ornithine-bind …: ALPQTVRIGTDTTYAPFSSKDCKGEFIGFDIDLGNEMCKRMQVKCTWVASDFDALIPSLKAKKIDAIISSLSITDKRQQEIAFSDKLYAADSRLIAAKGSPIQPTLESLKGKHVGVLQGSTQEAYANDNWRTKGVDVVAYANQDLIYSDLTAGRLDAALQDEVAASEGFLKQPAGKEYAFAGPSVKDKKYFGDGTGVGLRKDDTELKAAFDKALTELRQDGTYDKMAKKYFDFNVYGD",,,,+8%,
"LAOBP-22C TMR (conjugate, UniProt P02911 23-260, looked up, variant A22C, TMR label) Lysine/arginine/ornithine-bind …: ALPQTVRIGTDTTYAPFSSKDCKGEFIGFDIDLGNEMCKRMQVKCTWVASDFDALIPSLKAKKIDAIISSLSITDKRQQEIAFSDKLYAADSRLIAAKGSPIQPTLESLKGKHVGVLQGSTQEAYANDNWRTKGVDVVAYANQDLIYSDLTAGRLDAALQDEVAASEGFLKQPAGKEYAFAGPSVKDKKYFGDGTGVGLRKDDTELKAAFDKALTELRQDGTYDKMAKKYFDFNVYGD",,,,−10%,
